The text below walks through data of patent CN118307667A.

For this test, the target named is RSV A/B株的融合蛋白的融合前和融合后构象. Put plainly: ELISA, F protein coated 50 ng/well, anti-human IgG-Fc-HRP. Background: ELISA stands for enzyme-linked immunosorbent assay.

B1: RSFP2B6抗体 (antibody, V domains shown)
VH: QVQLVQSGGALAQPGRSLRLSCTTSGFTFGDYAVNWVRQAPGKGLEWVGIVRTEPYGGTTEYSASVKGRFIISRDDSKGIAYLQMNSLKTEDTGVYYCSQPILNVDVWGQGTTVTVSS
VL: NFMLTQPHSVSESPGKTVTISCTRSSGSFGSDYVQWYQQRPGSAPNTVIYENNQRPSGVPDRFSGSIDSSSNSASLTISGLKTEDEADYYCQSYDDNTPWVFGGGTELTVL
What is called EC50 is the midpoint of the concentration-response curve. High values mean a need for much substance, low ones an effect from little substance. Take B1: the EC50 lay in the range of 0.292 to 0.603 µg/mL.
